Measurements published in patent US7087420B1, “Microbial β-glucuronidase genes, gene products and uses thereof” (Cambia, priority 1997, dated 2006).

System: KW1
Experiment: X-GlcA staining of low-cysteine E. coli GUS muteins in KW1
Format: cell-based
Details: pBS backbone in KW1, staining with X-GlcA
From the text: Single and multiple Cys muteins are constructed by site-directed mutagenesis techniques. Eight of the nine cysteine residues in E. coli GUS are changed to the corresponding residue found in human GUS based on alignment of the two protein sequences. One of the E. coli GUS cysteine residues, amino acid 463, aligns with a cysteine residue in human GUS and was not altered. The corresponding amino acids between E. coli GUS and human GUS are shown below.
The mutein GUS genes are cloned into a pBS backbone. The mutations are confirmed by diagnostic restriction site changes and by DNA sequence analysis. Recombinant vectors are transfected into KW1 and GUS activity assayed by staining with X-GlcA (5-bromo-4-chloro-3-indolyl-β-D-glucuronide).

B1: D, E: E. coli GUS mutein, Cys 253 to Glu and Cys 262 to Ser (protein, UniProt P05804 1-603, looked up, variant C253E C262S)
Beta-glucuronidase: MLRPVETPTREIKKLDGLWAFSLDRENCGIDQRWWESALQESRAIAVPGSFNDQFADADIRNYAGNVWYQREVFIPKGWAGQRIVLRFDAVTHYGKVWVNNQEVMEHQGGYTPFEADVTPYVIAGKSVRITVCVNNELNWQTIPPGMVITDENGKKKQSYFHDFFNYAGIHRSVMLYTTPNTWVDDITVVTHVAQDCNHASVDWQVVANGDVSVELRDADQQVVATGQGTSGTLQVVNPHLWQPGEGYLYELEVTAKSQTESDIYPLRVGIRSVAVKGEQFLINHKPFYFTGFGRHEDADLRGKGFDNVLMVHDHALMDWIGANSYRTSHYPYAEEMLDWADEHGIVVIDETAAVGFNLSLGIGFEAGNKPKELYSEEAVNGETQQAHLQAIKELIARDKNHPSVVMWSIANEPDTRPQGAREYFAPLAEATRKLDPTRPITCVNVMFCDAHTDTISDLFDVLCLNRYYGWYVQSGDLETAEKVLEKELLAWQEKLHQPIIITEYGVDTLAGLHSMYTDMWSEEYQCAWLDMYHRVFDRVSAVVGEQVWNFADFATSQGILRVGGNKKGIFTRDRKPKSAAFLLQKRWTGMNFGEKPQQGGKQ
With B1 the GUS activity was “Yes”.
